The nature of the series: soluble fraction after stress (log2 fold change); higher = more stays soluble; pooled small domains, quantitative proteomics. The settings on record: stress: 50 degC. The method in brief: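 Quantitative proteomics served as the high-throughput read-out for pooled custom libraries of small protein domains. Each was stressed at 50°C. Aggregation propensity is expressed as the base-two log fold change in soluble protein after stress. A higher value means a larger share of the protein remains in solution.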

“HMDVYKRQKLRNFIESLFEDAPKNKQTIELKEEMLQNLIDKYNDLVDSGKSSEAAYNIATAS”: the “soluble fraction (log2)” value is -0.0392. The result for “HMQTRIDISDAVLQWVVRKTQFAALPPKAAAHLTKWVRGEKKPTFNQLEEVSKATGIPLGYFFLQQPPHE” reads -0.776; that for “HMKETKVIHVHLIFKKTSRFFGSISAIYSEFTAEEIGITEETLRHKGLSDGVSFATKKAIIQQGVLIR”, -1.67. For “HMKSDELTKRRRLQIIEAAERSFRKRGFHATTLREIAAEFGMSVGHIYNYFSGKDAILEALIHQKIDD”, the “soluble fraction (log2)” value was -0.82.

Take “HMTFPTEAKLTGDKVFVRSGPSTQSQRLTNLAINSVVTVLAREMGDMQYPWYKVRYSDGEGWVYGQYVEAI”: the “soluble fraction (log2)” value is -0.0237. As for “HMTGSLRIKHKTYYMLFSWKDESGQWRQKSESTGIPERGGKRKAQEMLNTRLEELQLQSTASL”, the “soluble fraction (log2)” value was -3.75.

Turning to “HMDHVEDRMVLEVVLKKLTEEERRIVMLHAVSGLKHREIAKALDIPLSTVLSKYKRTLKKLEAYLMEME”, the “soluble fraction (log2)” value was -1.78. In the case of “HMTGLSFEEKDLLGNALKLLDETERRIVILHATSGLKHREIAKQLDIPLPTVLSKYTRAIKKLKKHME”, the “soluble fraction (log2)” value was -0.0942. The figure for “HMFDEDKLIISIGSKVRIIREPYFGTIGKVVELPPELVKMDTEAMLRVAIIKLDDGEKVTIPRANLEVILS” is -1.22. The figure for “HMADEIQLVVQVNGKLRGRIMVAPDASREEIEKTALADADVSRFLGDTPVKKVIIVPKRLVNIVAPAPK” is -0.0114; for “HMSIELEISADGNNYRVSGLSDGEDVRVYSVSGVQVFSGKAQGGEVVIPADNWNKGIYVISAGGSSVKVL” it is -0.196; for “HMSDKEDIDKYLLTYGDLLFNRTNSSEWVGKTAIYRGEVSAIYAGYLIRIRSFLDAEYLNSVMNSKYA” it is -0.235.

On to “HMSHYDILEVDPKASATEIKQSFRKKSLQYHPDRNKSSDAHEYMTKITEAYNILGDKDKRRHYDMELKL”, for which the “soluble fraction (log2)” value is 0.442. The result for “HMSPQIDYFDDEELDVYRQIAPEAYTDEQIEVFRDILYTLRPEEVEEWLISLEKREINLPLILRQEAIELI” reads 0.369. The result for “HMRLIDVFELSPKNRTVLQLYYYEGYSVTEISKILKISVNGVTSRLSRARSKLKLEMEAAENE” reads -0.316. Take “HMDAKIEYTMSDLIENRLINSDDASMRREKLSEILKIGYGNGKKTLHKLNSFGITREEFEEAMKEVNSH”: the “soluble fraction (log2)” value was determined as 0.0697. For the sequence “HMSVLVLPMLKELTHEDREVVELFYLNDMSVREIALIISVPIGTVKSRLHRARAQLKHQIVNLNQ”, the “soluble fraction (log2)” value is -3.03. For the sequence “HMDTYKGFIFEVVDKYFSPTLNQKIGQAKNKQGIVLLQTKPSFTQDPKVLIEELKLIIDRDNLKA”, the “soluble fraction (log2)” value is -0.145. The result for “HMEQIGSIIKDIRKKNNLTQNEFASILGVTFQAVSKWENDKSIPDITILKDISNKFNVDLNYLISG” reads -0.0472; that for “HMSRAAQRLFMSQPPLSRHIRQLEDRLGVTLFVRHTRGLTLTEDGQRVLEMVRPLLDLQDKTYAALSQLT”, 0.382.

Regarding “HMKEHDTLALRLTAILRKLNDGEKLVPRELAEEFNVGIRTIQRDLTERLSFLDLEKTNGAYSLPTRNL”, the “soluble fraction (log2)” value is -0.428. For “HMTTQVPYTAKLININGGSVVNFRKEPGMNTTIIRTYPVGTEVTVLETGVNWSKVEIDGVTGYVSSYFL”, the “soluble fraction (log2)” value was -0.699. For “HMPRFDINFKVGEVVTIKGGSFDGQQGEISEIDHEHGKIKVMLEVLGRLTPVEVEHTEIEKI”, the “soluble fraction (log2)” value was determined as 0.176. The result for “HMIQQFTYAFAKDKGVVVLPGRDVLTLGMRAGADPLVLLEARRALGSSFELEPLDRDTYERTLADVFTADA” reads -0.695.

As for “HMGDHYTALGLSIDATPEEIRSAYFLAARRSHPDANPDAQTTEWFLRVQEAYDILSNPRRRAEYDASLP”, the “soluble fraction (log2)” value is -0.554. The figure for “HMTLSAPMPGTVLKIHVKEGQRVRKGQTLVVLEAMKMEHRIQAPKAGEVTNLHFSEGDRVDMGEILVEIG” is 0.0894; for “HMVVSDKIAFSSFLKSVEDGRVVEVEITGNDIRGILSDGTVFNTYAPNDPNLVEKLTSKGVNITALPKE” it is 0.19; for “HMGADPTTWPEIDAFVGRVAVTATGLFPSGQVEIDGRRFEARLAFGVAEPGARVVVRRRTDFGLLVEKETR” it is -0.389.

Turning to “HMDRRIDIANAVKTALGSLPERQKTAIVLVHYEGFSGAETAKLLGISVEAVESLLARARRNLRQTLGP”, the “soluble fraction (log2)” value was -0.455. With “HMIPSEQYNTALTEIGLSTRAHNSLRRAGIMTLGQLIEKTRDGLPPLPGFGDKSQVEVQDLLTGLGYPI”, the “soluble fraction (log2)” value is -0.203.

On to “HMDAYMGEAKDEETFAEEYLNDSGLLNEIPESVARYFDIVAYARDLLIGDFSLHDGHVFNMT”, for which the “soluble fraction (log2)” value was -0.0437. Turning to “HMYKMKDRIKKIMEMQRTTQQDFADQLKIAPATLSSIFTGRTRPTLAIVDAIKSRFPQISTDWLMFGKGDM”, the “soluble fraction (log2)” value was -0.219. As to “HMRQMIIIMQKQAAASSVAAVVEFIRSKGLREHISPGAERTIIGAVGDERVFLPQELESLPQVERAIRVL”, the “soluble fraction (log2)” value was -1.14. Regarding “HMIPKIIDITDLNEEVREVIEEYMKRKRVEKYHIYQDSKGQIFIISGSAIIRYDSKLNNLYYL”, the “soluble fraction (log2)” value was -0.405.

With “HMDWNPVRDITAHQVLAILQATHIRAPTVAAEAKRTLSSIFQFAVATLRADIDPVWPVRNALPKNKT”, the “soluble fraction (log2)” value turned out to be 0.00605. The result for “HMEDNLVTYPNPTSDYIYVSKKVDLTVVNMLGDILIQKQNINVLDVTELTPGMYTIVIRYNNVTTNKRIIK” reads -0.372. The result for “HMRQEIIEDSRKLLEESLKRYDLTYQEFIDTLKSKNMNVESTLINIIKNQSSLDLVLRNLGLIAP” reads -0.0959; that for “HMATLTPLGRLQLARYHAQERATLAATAERFQVSTTTVRRWVGRYHQVVAAGGRPTTADMQDRPSRP”, -2; that for “HMRRNLSGEDTIVNRMAQWQYTQEQKNELHKMMDAGMPQEDILSVFYPEIKAEEMHRFLLAFQTAHNSG”, -0.162. The figure for “HMKEILLITGKGLHSGQDDVYKSAQLSKLRYSVPEFIKSNLEISQLILSVETPLQKDGGDGALLIK” is 0.13; for “HMGPGSYVVNVKPYAYVSINGRDYGRTPVGPIRLDPGTYKVVFTHEHRPSFSRTIVVEAGRETFETFPYPG” it is -0.29; for “HMNEISLKEITIEEDHPWRDKKIKELDLKEHILVAMIRRKDQDIIPNGETKIYKDDILVIYD” it is 0.144. On to “HMRRRVIGTLVMGDMSTDFKVLADGHTHRVLAAAISFHKAKPGDEVVILVPKSAPSKWAAVEHVMK”, for which the “soluble fraction (log2)” value came out at 0.458.

In the case of “HMQQLTDRELEVLRLLAAGLSNNKIGEKLYISATTAKFHVSNIMRKLEVSRRAEAVYAASKRGL”, the “soluble fraction (log2)” value was -2. The result for “HMREGLRHLRVRMPGGAGETLAMLYREGEVLSQSSDGAFIEVEIRVAQSVAGRLLQMPGVQLTEEVG” reads -0.21; that for “HMEAALTLRVDKAGSLRSLLSDEQYAKTSKIIVSGEINTLDIKTLQEMSGEKGSLQSIDLSQANIVAY”, -0.00676; that for “HMPPSVAETLKRLRRHKSLSLEELAQMSGVSRSMLSQIERDATNPTVATLWRITAALGVSIDEVLGV”, -1.87.

In the case of “HMASEVEVPNVYGMPSSLAERELSAVGLLADYRSRTGTGQQPGTVVHVKPDAGTVVSRGSTVVLFIA”, the “soluble fraction (log2)” value worked out at 0.00535. The figure for “HMSELDSYIGARLRMRRLMLGMSQEALGEKLSLTFQQIQKYEKGTNRVSASRLYELAQVLDVPVQFFFDGA” is -2.93. Consider “HMGQPRPLTAEDFDFLSDDEIAEMRKALSNGEMLRLRELIAQIGEKRPFLAERLLVLAKQYNYEDLSRLLE”, for which the “soluble fraction (log2)” value was -0.374.

Regarding “HMVAEPTYGRTTDVLNIRSGPSTDDERIGQLSRGAVVTILEEKDGWYRLQRGYISADYVTQISAEEASNS”, the “soluble fraction (log2)” value is -0.221. With “HMIRVGRPQYKRGEFVSFDFDNGRKKTEMYGRVDVIDSYGTFGQGREVSYDIRASDGILYKHIPESSVYGF”, the “soluble fraction (log2)” value is -1.5.

Consider “HMDRMIPPYGLEVTYDKTTHIIFPSAVRYVDLGSPNLIAGKADGSENVIRVKATRKNFREETNMSVITE”, for which the “soluble fraction (log2)” value is -0.043. Take “HMGIIQAQIPGLVSRLFVKKGDKVAVNQRLFILEAMKMENEIDSPIQGMVEKIHITTGSKVEKGDLIMEIV”: the “soluble fraction (log2)” value was -0.323. Regarding “HMKVDLSEEEKTILELLKKESPQELETIKAASTLSNKKWDKAIKGLRKHNLAKVNKTDDGLFVELE”, the “soluble fraction (log2)” value came out at 0.257. The result for “HMITEDQVIARIGLLSPAEKSLLKDKLERFRRLTLSEQQHLREFHSALDNHDKRTDLLNVLRKYNDWVNQL” reads -1.67; that for “HMDVFPDESLKAWLIEMGFKLDQKKMNVFTVLRRMLLQTAPSVKEFRILEIVLQQSRRKLKELNDLKKS”, -0.0335. The result for “HMGKVNGFEITVIEGKNVVGSITPRQAIAKNSDGVIQLRGEQSFSATDQVLINELAFYIKSNNLKA” reads -0.949; that for “HMLKLYILTDGKNYVMDDPIHPGRVMYSTSPVNAKKFTFKQARALLNNKSKKLSWIRSFNMVDDSSGEKI”, -0.692; that for “HMQEINLIGVTGNDLERSALVKLLDGEIIKLSVGDNLNGGRVVDISAVTLTYLKSGQSITLKLPK”, -1.01. The figure for “HMATQMSSARRGIATDEMKQVAKDEDVTLDWLLPKIAIGSIIIPSNNVRPQKIHNVGIGKGMKTKVN” is 0.116; for “HMELADNFAKLILTARESKGWTQAQLGQRMAETINVIKSAESGKPPADSVIRKFEMILGIELM” it is -1.96. For “HMRDSWNEATKEKRYTEAYDALNSALKKTPATPHALSDALWIARELGRTNEEVQRLEWRLYALLTWIS”, the “soluble fraction (log2)” value worked out at 0.0708. The result for “HMLEPGQKVKSVVVDISGDLIYIDLGGKTEGVVELKEFYDEAGEYHVKPGDEIEVFFVSVQNGLKRFTT” reads -0.0167; that for “HMTNVDELIGKEAVVVKEIRPYTTGEVKLDGKVWRAMSESKQVYKVDEIVTVLRIEGVTMII”, -0.419. As to “HMAITLEQFLSVNPHIRNNLYGNAVELVKDKDFSVLSDKLKASSKWANEPSLYKILSHYDEIIS”, the “soluble fraction (log2)” value was 0.063. The result for “HMTTVDYDALRAAILQQVVSEDTTPALTTENTEIKYKFKFGLDTWVDLDGGKIAPAVSAKSYEIQISFKG” reads 0.132. The result for “HMEFDFGAILSGNGGSELYSGYSAEQKAALVEAAKADGMDVEFGADGSTTFKDKDGSEVVQKADGTWTV” reads 0.18.

The values are drawn from the domain aggregation screens of Martell et al. (2025).
